Biological target: MCT2 tagged at its N-terminus with CFP (rat) (UniProt Q63344)
Experiment: FRET or BRET; live COS-7 cells co-transfected with MCT2-ECFP (N-terminal) and np55- or np65-EYFP (C-terminal), 48 h after transfection; 37°C, imaging buffer pH 7.4; ratio of emission at 480 nm to 530 nm on excitation at 430 nm (MCT2-CFP alone 1.33±0.016)

np55 C-terminally labelled with YFP (natural protein), sequence (P97546 29-393): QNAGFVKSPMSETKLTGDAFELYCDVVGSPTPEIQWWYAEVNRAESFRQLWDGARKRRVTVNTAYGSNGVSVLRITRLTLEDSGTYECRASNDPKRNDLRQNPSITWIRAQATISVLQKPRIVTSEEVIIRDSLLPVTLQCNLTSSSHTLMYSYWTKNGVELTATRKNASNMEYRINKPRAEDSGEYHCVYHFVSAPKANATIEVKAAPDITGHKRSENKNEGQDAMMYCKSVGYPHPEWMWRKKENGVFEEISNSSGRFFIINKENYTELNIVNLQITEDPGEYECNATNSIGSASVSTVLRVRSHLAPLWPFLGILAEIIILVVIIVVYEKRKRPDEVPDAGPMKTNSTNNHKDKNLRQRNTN
MCT2 tagged at its N-terminus with CFP (rat), sequence (Q63344 whole entry): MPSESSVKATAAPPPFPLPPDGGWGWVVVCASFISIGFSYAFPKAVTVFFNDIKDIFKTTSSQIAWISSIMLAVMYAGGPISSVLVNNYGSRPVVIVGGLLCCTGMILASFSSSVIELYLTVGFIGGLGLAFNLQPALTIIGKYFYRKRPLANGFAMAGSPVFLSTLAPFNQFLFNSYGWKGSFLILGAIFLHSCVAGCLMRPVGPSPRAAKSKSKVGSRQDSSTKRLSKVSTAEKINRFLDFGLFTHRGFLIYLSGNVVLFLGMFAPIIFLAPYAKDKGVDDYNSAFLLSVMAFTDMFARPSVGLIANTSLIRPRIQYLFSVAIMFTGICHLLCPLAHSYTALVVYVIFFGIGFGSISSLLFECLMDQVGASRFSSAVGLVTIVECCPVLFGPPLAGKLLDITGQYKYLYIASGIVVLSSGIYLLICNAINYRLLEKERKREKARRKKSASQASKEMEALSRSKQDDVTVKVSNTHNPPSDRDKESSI

480:530 nm fluorescence emission ratio (FRET): 0.797
Substance: np55 C-terminally labelled with YFP (natural protein)

Source: paper PMC3832594
